Assay results published in US20250283871A1, “COMPOSITIONS AND METHODS FOR MODULATING THE INTERACTION BETWEEN SS18-SSX FUSION ONCOPROTEIN AND NUCLEOSOMES” (Dana-Farber Cancer Institute, Inc., priority 2020, published 2025).

Assays:
[1] = biological target: TNR6B_HUMAN Trinucleotide repeat-containing gene 6B protein (human) (UniProt Q9UPQ9); experiment: anti-SMARCA4 (BRG1) IP, mass spectrometry, Aska-SS cells
[2] = biological target: ZC11A_HUMAN Zinc finger CCCH domain-containing protein 11A (human) (UniProt O75152); experiment: as above
[3] = biological target: YLPM1_HUMAN Isoform 4 of YLP motif-containing protein 1 (human) (UniProt P49750); experiment: as above
[4] = biological target: XRN2_HUMAN 5'-3' exoribonuclease 2 (human) (UniProt Q9H0D6); experiment: as above
[5] = biological target: URB2_HUMAN Unhealthy ribosome biogenesis protein 2 homolog (human) (UniProt Q14146); experiment: as above
[6] = biological target: UBC_HUMAN Polyubiquitin-C (human) (UniProt P0CG48); experiment: as above
[7] = biological target: TRA2B_HUMAN Transformer-2 protein homolog beta (human) (UniProt P62995); experiment: as above
[8] = biological target: VIME_HUMAN Vimentin (human) (UniProt P08670); experiment: as above
[9] = biological target: UCRIL HUMAN Putative cytochrome b-c1 complex subunit Rieske-like protein 1 (human) (UniProt P0C7P4); experiment: as above
[10] = biological target: ZN326_HUMAN DBIRD complex subunit ZNF326 (human) (UniProt Q5BKZ1); experiment: as above
[11] = biological target: TSP1_HUMAN Thrombospondin-1 (human) (UniProt P07996); experiment: as above
[12] = biological target: QCR2_HUMAN Cytochrome b-c1 complex subunit 2, mitochondrial (human) (UniProt P22695); experiment: as above
[13] = biological target: UBP2L_HUMAN Isoform 5 of Ubiquitin-associated protein 2-like (human) (UniProt Q14157); experiment: as above
SSX1; SSX8 (human) = SSX1; SSX8 (human) (UniProt Q16384); experiment: MS of BAF complexes from Aska-SS cells, shControl against shSS18-SSX, Rep 1
[14] = biological target: SMCE1_HUMAN SWI/SNF-related matrix-associated actin-dependent regulator of chromatin subfamily E member 1 (human) (UniProt Q969G3); experiment: as above
[15] = biological target: SMRD1_HUMAN SWI/SNF-related matrix-associated actin-dependent regulator of chromatin subfamily D member 1 (human) (UniProt Q96GM5); experiment: as above
[16] = biological target: TNR6B_HUMAN Trinucleotide repeat-containing gene 6B protein (human) (UniProt Q9UPQ9); experiment: anti-SMARCA4 (BRG1) IP, mass spectrometry, HEK-293T cells
[17] = biological target: ZC11A_HUMAN Zinc finger CCCH domain-containing protein 11A (human) (UniProt O75152); experiment: as above
[18] = biological target: YLPM1_HUMAN Isoform 4 of YLP motif-containing protein 1 (human) (UniProt P49750); experiment: as above
[19] = biological target: XRN2_HUMAN 5'-3' exoribonuclease 2 (human) (UniProt Q9H0D6); experiment: as above
[20] = biological target: URB2_HUMAN Unhealthy ribosome biogenesis protein 2 homolog (human) (UniProt Q14146); experiment: as above
[21] = biological target: UBC_HUMAN Polyubiquitin-C (human) (UniProt P0CG48); experiment: as above
[22] = biological target: TRA2B_HUMAN Transformer-2 protein homolog beta (human) (UniProt P62995); experiment: as above
[23] = biological target: VIME_HUMAN Vimentin (human) (UniProt P08670); experiment: as above
[24] = biological target: UCRIL HUMAN Putative cytochrome b-c1 complex subunit Rieske-like protein 1 (human) (UniProt P0C7P4); experiment: as above
[25] = biological target: ZN326_HUMAN DBIRD complex subunit ZNF326 (human) (UniProt Q5BKZ1); experiment: as above
[26] = biological target: TSP1_HUMAN Thrombospondin-1 (human) (UniProt P07996); experiment: as above
[27] = biological target: QCR2_HUMAN Cytochrome b-c1 complex subunit 2, mitochondrial (human) (UniProt P22695); experiment: as above
[28] = biological target: UBP2L_HUMAN Isoform 5 of Ubiquitin-associated protein 2-like (human) (UniProt Q14157); experiment: as above

NSAF [1]: 0
NSAF [2]: 0
NSAF [3]: 0
NSAF [4]: 0
NSAF [5]: 0
NSAF [6]: 0
NSAF [7]: 0
NSAF [8]: 0
NSAF [9]: 0
NSAF [10]: 0
NSAF [11]: 0
NSAF [12]: 0
NSAF [13]: 0
LFQ intensity ratio Aska (shControl)/Aska (shSS18-SSX), norm to SMARCA4 (SSX1; SSX8 (human)): 8.69
LFQ intensity ratio Aska (shControl)/Aska (shSS18-SSX), norm to SMARCA4 [14]: 0.894
LFQ intensity ratio Aska (shControl)/Aska (shSS18-SSX), norm to SMARCA4 [15]: 0.771
NSAF [16]: 3.4e-05
NSAF [17]: 7.68e-05
NSAF [18]: 0.000116
NSAF [19]: 6.55e-05
NSAF [20]: 4.08e-05
NSAF [21]: 9.09e-05
NSAF [22]: 0
NSAF [23]: 0
NSAF [24]: 0
NSAF [25]: 0.000749
NSAF [26]: 0
NSAF [27]: 0
NSAF [28]: 5.64e-05
Substance: SMCA4_HUMAN Transcription activator BRG1 (from UniProt P51532 1-1647) (enzyme)
